Reference: patent publication US20090162366A1 (KIRIN PHARMA, published 2009)

T1: OVA (UniProt P01012 2-386)
T1 sequence: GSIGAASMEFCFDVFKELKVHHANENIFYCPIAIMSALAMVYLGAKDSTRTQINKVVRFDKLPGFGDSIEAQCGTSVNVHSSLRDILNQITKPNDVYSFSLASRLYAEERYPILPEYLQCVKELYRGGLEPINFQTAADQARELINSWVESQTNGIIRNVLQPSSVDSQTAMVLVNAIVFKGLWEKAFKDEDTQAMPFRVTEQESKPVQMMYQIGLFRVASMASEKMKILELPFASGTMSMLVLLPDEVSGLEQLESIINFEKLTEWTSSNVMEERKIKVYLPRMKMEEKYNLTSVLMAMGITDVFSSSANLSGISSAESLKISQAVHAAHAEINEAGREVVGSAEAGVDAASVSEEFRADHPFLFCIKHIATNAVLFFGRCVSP


Columns and labels:
BSA = BSA (UniProt P02769 25-607); assay: ELISA
BSA, sequence (P02769 25-607 limits assumed): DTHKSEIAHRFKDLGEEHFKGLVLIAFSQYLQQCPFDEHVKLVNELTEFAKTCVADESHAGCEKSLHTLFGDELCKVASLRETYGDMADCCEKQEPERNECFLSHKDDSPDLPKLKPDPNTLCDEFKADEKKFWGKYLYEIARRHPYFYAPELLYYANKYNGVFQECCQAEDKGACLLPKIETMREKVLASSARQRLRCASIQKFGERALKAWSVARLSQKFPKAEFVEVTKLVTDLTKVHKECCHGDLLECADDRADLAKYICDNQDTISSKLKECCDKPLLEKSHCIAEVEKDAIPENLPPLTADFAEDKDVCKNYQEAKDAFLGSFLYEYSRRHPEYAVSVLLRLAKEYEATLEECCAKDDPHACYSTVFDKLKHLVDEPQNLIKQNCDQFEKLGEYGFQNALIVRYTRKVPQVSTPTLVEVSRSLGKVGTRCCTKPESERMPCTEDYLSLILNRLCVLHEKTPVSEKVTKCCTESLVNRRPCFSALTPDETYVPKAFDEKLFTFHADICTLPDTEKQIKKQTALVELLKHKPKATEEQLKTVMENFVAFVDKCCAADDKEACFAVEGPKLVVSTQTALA

OVA = biological target: T1, OVA; assay: ELISA

Row | Binder | binding result (BSA) | binding result (OVA)
1 | N547 (antibody, V domains shown) VH: not shown VL: QSVLTQPPSMSAAPGQKVTISCSGSSSNIGNNYISWYQQLPGTAPKVLIYDNNKRPSGIPDRFSGSKSGTSATLGITGLQTGDEADYYCGSWDSSLSAGVFGTGTKVTVLG | no binding (tested: below 0.1 at OD450nm) | no binding (tested: below 0.1 at OD450nm)
2 | L66 (antibody, V domains shown) VH: EVQLVESGGGVVRPGGSLRLSCAASGFTFDDYGMSWVRQAPGKGLEWVSGINWNGGSTGYADSVKGRFTISRDNAKNSLYLQMNSLRAEDTALYYCARDRVTMVRGVIMDYYGMDVWGQGTTVTVSS VL: QTVVTQEPSLTVSPRGTVTLTCSSSTGAVTSGYYPGWFQLKPGQAPMSLIYSARKKHSWTPARFSGSLLGGKAALTLSGVQPEDEAEYYCLLYYGGAYVFGTGTKVTVLG | no binding (tested: below 0.1 at OD450nm) | no binding (tested: below 0.1 at OD450nm)
3 | C40 (antibody, V domains shown) VH: QLQLQESGPGLVKPSETLSLTCTVSGGSISSSFYYCGWIRQPPGKGLEWIGSIYYRGSTYYNPSLKSRVTISVDTSKNQFSLKLSSVTAADTAVYYCARRVTMVRGVKGDYFDYWGQGTLVTVSS VL: DIQMTQSPSSLSASVGDRVTITCRASQGISSWLAWYQQKPEKVPKSLIYAASSLQSGVPSRFSGSGSGTDFTLTISSLQPEDFATYYCQQYNYYPLTFGGGTKVEIKR | no binding (tested: below 0.1 at OD450nm) | no binding (tested: below 0.1 at OD450nm)
4 | C40G1 (antibody, V domains shown) VH: QLQLQESGPGLVKPSETLSLTCTVSGGSISSSFYYCGWIRQPPGKGLEWIGSIYYRGSTYYNPSLKSRVTISVDTSKNQFSLKLSSVTAADTAVYYCARRVTMVRGVKGDYFDYWGQGTLVTVSS VL: DIQMTQSPSSLSASVGDRVTITCRASQGISSWLAWYQQKPEKVPKSLIYAASSLQSGVPSRFSGSGSGTDFTLTISSLQPEDFATYYCQQYNYYPLTFGGGTKVEIKR | no binding (tested: below 0.1 at OD450nm) | no binding (tested: below 0.1 at OD450nm)
